# Experimental data reported in publication PMC6823300, “The molecular basis of monopolin recruitment to the kinetochore” (Chromosoma, 2019).
# B1: S. pombe Csm1 C-terminal globular domain (residues 125–261), wild type [S. pombe] / Sp Mis13 5–17 peptide (Dsn1-N/Box 1), fluorescein isothiocyanate-labelled [modified: fluorescein isothiocyanate-labelled at its N-terminus; fluorescein … (parent complex)
# chain 1: NAGADADDTIVKDLKKELENEKKANHSLKNELLKTREQIKNYSKINILIKELFGLEVADCIEDEDGYRFNCKNTGRRGTLEYQLLLDDQNFTFTPRLNVQTDEELMKHLPDYLLEEIIFTKEQGKLFSARLMKALQD
# chain 2: PEEQEGFVFVRKG
# Variants of: B1
# Experiment: fluorescence polarisation; point at 250 µM protein (highest concentration shown); parent: 140; read off a plot
row,Variant,response [mP]
1,chain 1 NAGADADDTIVKDLKKELENEKKANHSLKNELLKTREQIKNYSKINILIKELFGLEVADCIEDEDGYRFNCKNTGRRGTLEYQLLLDDQNFTFTPRLNVQTDEELMKHLPDYLLEEDIFTKEQGKLFSARLMKALQD,~73
